# Assay results: patent publication US20230407276, “CRISPR-CAS EFFECTOR POLYPEPTIDES AND METHODS OF USE THEREOF” (The Regents of the University of California, published 2023)
# T1: DpbCasX (DpbCasXv1)
# T1 chain: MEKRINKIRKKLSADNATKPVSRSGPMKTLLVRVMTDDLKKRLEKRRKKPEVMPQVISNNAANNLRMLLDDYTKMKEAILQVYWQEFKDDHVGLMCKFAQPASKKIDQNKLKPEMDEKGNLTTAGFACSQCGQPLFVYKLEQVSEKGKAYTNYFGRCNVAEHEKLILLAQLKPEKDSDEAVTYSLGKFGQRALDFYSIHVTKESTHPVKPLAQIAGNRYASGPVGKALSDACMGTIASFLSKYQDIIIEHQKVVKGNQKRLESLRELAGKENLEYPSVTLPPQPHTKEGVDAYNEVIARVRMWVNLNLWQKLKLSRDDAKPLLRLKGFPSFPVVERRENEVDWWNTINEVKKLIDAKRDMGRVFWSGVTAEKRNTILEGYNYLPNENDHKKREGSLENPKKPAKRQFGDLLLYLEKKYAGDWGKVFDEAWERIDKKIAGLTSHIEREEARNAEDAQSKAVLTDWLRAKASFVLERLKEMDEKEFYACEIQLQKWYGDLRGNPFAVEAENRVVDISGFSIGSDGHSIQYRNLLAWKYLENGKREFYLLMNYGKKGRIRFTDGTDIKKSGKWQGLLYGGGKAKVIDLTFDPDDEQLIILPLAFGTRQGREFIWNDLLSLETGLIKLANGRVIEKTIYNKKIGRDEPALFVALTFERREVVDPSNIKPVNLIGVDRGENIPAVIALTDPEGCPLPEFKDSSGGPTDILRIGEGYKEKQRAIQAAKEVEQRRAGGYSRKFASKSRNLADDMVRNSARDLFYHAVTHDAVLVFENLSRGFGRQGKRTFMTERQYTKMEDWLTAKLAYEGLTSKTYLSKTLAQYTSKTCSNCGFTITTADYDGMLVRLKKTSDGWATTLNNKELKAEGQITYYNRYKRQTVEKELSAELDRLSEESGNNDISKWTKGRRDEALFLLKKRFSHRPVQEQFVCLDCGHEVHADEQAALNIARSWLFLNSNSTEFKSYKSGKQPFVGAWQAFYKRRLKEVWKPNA
# T2: PlmCasX (PlmCasXv1)
# T2 chain: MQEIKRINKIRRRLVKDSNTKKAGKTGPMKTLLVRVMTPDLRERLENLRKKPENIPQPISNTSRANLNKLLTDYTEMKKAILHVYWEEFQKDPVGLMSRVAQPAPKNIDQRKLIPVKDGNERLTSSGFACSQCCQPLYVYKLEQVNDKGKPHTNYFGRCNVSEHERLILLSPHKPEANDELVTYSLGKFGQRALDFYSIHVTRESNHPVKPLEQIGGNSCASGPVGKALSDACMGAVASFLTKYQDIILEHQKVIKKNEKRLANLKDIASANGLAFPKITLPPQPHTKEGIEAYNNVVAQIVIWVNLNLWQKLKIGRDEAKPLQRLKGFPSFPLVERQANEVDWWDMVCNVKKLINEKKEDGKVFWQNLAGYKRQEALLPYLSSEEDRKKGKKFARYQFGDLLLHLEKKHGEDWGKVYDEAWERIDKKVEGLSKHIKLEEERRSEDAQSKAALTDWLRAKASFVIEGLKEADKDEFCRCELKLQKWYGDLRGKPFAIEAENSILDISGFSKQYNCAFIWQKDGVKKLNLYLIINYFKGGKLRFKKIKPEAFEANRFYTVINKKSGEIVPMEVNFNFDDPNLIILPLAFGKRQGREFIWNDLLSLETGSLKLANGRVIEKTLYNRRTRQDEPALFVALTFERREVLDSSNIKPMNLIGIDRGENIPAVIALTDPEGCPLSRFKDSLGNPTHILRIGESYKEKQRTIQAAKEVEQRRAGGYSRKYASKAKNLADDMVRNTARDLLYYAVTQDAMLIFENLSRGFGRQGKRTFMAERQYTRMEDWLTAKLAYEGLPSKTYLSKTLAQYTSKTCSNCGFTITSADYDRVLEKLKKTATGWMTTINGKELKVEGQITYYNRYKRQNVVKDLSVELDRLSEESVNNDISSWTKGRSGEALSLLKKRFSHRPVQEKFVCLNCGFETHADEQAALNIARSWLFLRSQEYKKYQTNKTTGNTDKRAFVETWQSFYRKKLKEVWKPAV
# How the values were obtained:
# [1] = system: DpbCasX dH2 Helical-II domain deleted; experiment: cleavage_in_vitro; details: NTS; 37 C, Mg2+; TS value 0.008223; unit assumed
# [2] = system: PlmCasX dH2 Helical-II domain deleted; experiment: cleavage_in_vitro; details: NTS; 37 C, Mg2+; TS value 1.741e-5; unit assumed
# [3] = target: T1, DpbCasX (DpbCasXv1); experiment: cleavage_in_vitro; NTS; 37 C, Mg2+; details: label: 5'-32P
# Description: (§1) FIG. 14A-14G. Updated design of the CasX sgRNA. […] The coverage axis denotes the number of sequencing reads. The abscissa denotes the genome sequence of the hypothetical tracrRNA region. (B) The structural details for sgRNAv1. The additional U at the 5′ end was hypothetically modeled in the top panel. The structural details of the G30-C54 base-paring region in sgRNAv1 are also shown in the bottom panel. […] The sgRNAv1-2 architecture is modeled based on sgRNAv1. The potential base-pairing between the additional 5′ U and A29 is labeled with a dashed line. The Helical-II domain was modeled to indicate the interaction interface with the sgRNA scaffold stem. (D) In vitro dsDNA cleavage activity comparison among different sgRNAs by DpbCasX and PlmCasX. The NTS was ³²P labeled on the 5′ end. (E) Cleavage kinetics analysis was based on the NTS band density from the cleaved fractions compared to the input NTS band density at the reaction time of 0 min (n=3, mean±s.d.) (DpbCasX-v2 from FIG. 15A). The fractions were collected from 0 min to 6 hrs. […] (F) The hypothetical secondary architectures of sgRNAv2 designs. […] The fractions were collected at 0 min, 10 mins, 20 mins, 40 mins, 1 hr, 2 hrs, 4 hrs and 6 hrs, respectively. OC/N indicates the open-circle or nicked plasmids, L indicates the linearized plasmids and SC indicates the super-coiled plasmids (n=3, representative gel shown).
# [4] = target: T2, PlmCasX (PlmCasXv1); experiment: cleavage_in_vitro; NTS; 37 C, Mg2+; details: label: 5'-32P
# Description: as §1
molecule,measurement,setting,value
GGCGCGUUUAUUCCAUUACUUUGGAGCCAGUCCCAGCGACUAUGUCGUAUGGACGAAGCGCUUAUUUAUCGGAGAGAAACCGAUAAGUAAAACGCAUCAAAGUCCUGCAGCAGAAAAUCAAA / ATCGTTATACTTTGATTTTCTGCTGCAGGATGAAATCCCG / CGGGATTTCATCCTGCAGCAGAAAATCAAAGTATAACGAT [sgRNAv1 ; dsDNA target 40 bp],activity,[1],0.00671 min⁻¹
same,activity,[2],0.00268 min⁻¹
sgRNAv1-2 ; dsDNA target 40 bp (ssRNA ; dsDNA) RNA: UGGCGCGUUUAUUCCAUUACUUUGGAGCCAGUCCCAGCGACUAUGUCGUAUGGACGAAGCGCUUAUUUAUCGGAGAGAAACCGAUAAGUAAAACGCAUCAAAGUCCUGCAGCAGAAAAUCAAAG DNA 1: ATCGTTATACTTTGATTTTCTGCTGCAGGATGAAATCCCG DNA 2: CGGGATTTCATCCTGCAGCAGAAAATCAAAGTATAACGAT,activity,[3],0.0109 k (unit not stated; min-1 inferred)
sgRNAv2-3 ; dsDNA target 40 bp (ssRNA ; dsDNA) RNA: UACUGGCGCUUUUAUCUCAUUACUUUGAGAGCCAUCACCAGCGACUAUGUCGUAUGGGUAAAGCGCUUAUUUAUCGGAGAAACCGAUAAAUAAGAAGCAUCAAAGUCCUGCAGCAGAAAAUCAAAG DNA 1: ATCGTTATACTTTGATTTTCTGCTGCAGGATGAAATCCCG DNA 2: CGGGATTTCATCCTGCAGCAGAAAATCAAAGTATAACGAT,activity,[4],0.0217 k (unit not stated; min-1 inferred)
sgRNAv2-2 ; dsDNA target 40 bp (ssRNA ; dsDNA) RNA: UGGCGCUUUUAUCUCAUUACUUUGAGAGCCAUCACCAGCGACUAUGUCGUAUGGGUAAAGCGCUUAUUUAUCGGAGAAACCGAUAAAUAAGAAGCAUCAAAGUCCUGCAGCAGAAAAUCAAAG DNA 1: ATCGTTATACTTTGATTTTCTGCTGCAGGATGAAATCCCG DNA 2: CGGGATTTCATCCTGCAGCAGAAAATCAAAGTATAACGAT,activity,[4],0.00919 k (unit not stated; min-1 inferred)
